Source: PMC10877727, “Effect of TraN key residues involved in DNA binding on pIP501 transfer rates in Enterococcus faecalis”

B1: random DNA 34-mer (dsDNA)
DNA 1: AGGGCGCACTTATACGCAGTAACTTCGTTACTTC
DNA 2: GAAGTAACGAAGTTACTGCGTATAAGTGCGCCCT
B2: oBS 34-mer (original TraN binding site) (dsDNA)
DNA 1: CGGAAATGTCAGGTTAAACATATTTACTTTTATA
DNA 2: TATAAAAGTAAATATGTTTAACCTGACATTTCCG

Tests used:
Details in all cases: protein: recombinant; tags: N-terminal 7xHis (pQTEV); blunt
TraN_H82A-R86A [1] = target: T1, TraN_H82A-R86A (Enterococcus faecalis plasmid pIP501, UniProt Q7BVV5 1-122, H82A;R86A); assay: MST; no sigmoidal fit possible up to 12.8 uM DNA; extremely low affinity; MST in PBS-T (pH and temperature not stated); 50 nM RED-tris-NTA labelled His-protein, dsDNA 0.781 nM to 12.8 uM; Monolith NT.115, 60% LED and MST power
TraN_G100A-K101A [2] = target: T2, TraN_G100A-K101A (Enterococcus faecalis plasmid pIP501, UniProt Q7BVV5 1-122, G100A;K101A); assay: as above
TraN_H82A-R86A [3] = target: T1, TraN_H82A-R86A; assay: MST; MST in PBS-T (pH and temperature not stated); 50 nM RED-tris-NTA labelled His-protein, dsDNA 0.781 nM to 12.8 uM; Monolith NT.115, 60% LED and MST power
TraN_R23A-N24A-Q28A = TraN_R23A-N24A-Q28A (Enterococcus faecalis plasmid pIP501, UniProt Q7BVV5 1-122, R23A;N24A;Q28A); assay: as above
TraN_G47A-G48A = TraN_G47A-G48A (Enterococcus faecalis plasmid pIP501, UniProt Q7BVV5 1-122, G47A;G48A); assay: as above
TraN_G100A-K101A [4] = target: T2, TraN_G100A-K101A; assay: as above
TraN = TraN (Enterococcus faecalis plasmid pIP501, UniProt Q7BVV5 1-122); assay: as above

Binder	binding result (TraN_H82A-R86A [1])	binding result (TraN_G100A-K101A [2])	Kd (TraN_H82A-R86A [3])	Kd (TraN_R23A-N24A-Q28A)	Kd (TraN_G47A-G48A)	Kd (TraN_G100A-K101A [4])	Kd (TraN)
B1	no binding	no binding	–	–	–	–	–
B2	–	–	425 ± 102 nM	154 ± 19.5 nM	48.8 ± 9.75 nM	406 ± 45.5 nM	11.7 ± 2.65 nM
